Measurements published in patent US20110158954A1, “METHOD FOR PRODUCING GAMMA DELTA T CELL POPULATION” (priority 2007, published 2011).

Legend:
Assay type in all cases: cell-based
[1] = system: γδ T cells; experiment: Expansion of γδ T cell population using pamidronate in Yssel's medium (Example 4); settings: human PBMCs, stimulant pamidronate 5 μM, IL-2 100 U/mL, immobilized FN fragment, day 14
Protocol: The expansion of a γδ T cell population was carried out in the same manner as in Example 2-(1), provided that as a basal medium for culture, a medium prepared originally by the applicant having the same composition as an Yssel's medium (hereinafter referred to as “Yssel's medium”) was used in place of IMDM, and that on the fifth day from the initiation of culture, 1 mL of an Yssel's medium containing 10% (v/v) human AB serum was added to each well, to dilute the cell suspension.
The ratio of γδ T cells was analyzed according to flow cytometry for PBMCs prepared in Example 1-(1) and the cells on the fourteenth day from the initiation of culture prepared in Example 4-(1), in the same manner as in Example 1-(4). As a result, the ratio of the γδ T cells was 8.9% for the PBMCs, and the ratio was from 89.7 to 94.3% for the cells on the fourteenth day from the initiation of culture.
(§1) The number of live cells was counted according to trypan blue staining method for the cells on the fourteenth day from the initiation of culture prepared in Example 4-(1). The expansion fold of γδ T cells was calculated in comparison of the counted number with the number of γδ T cells at the initiation of culture, in the same manner as in Example 1-(5).

[2] = system: γδ T cells; experiment: Expansion of γδ T cell population using pamidronate or IPP (Example 1); settings: human PBMCs, IL-2 20 U/mL, immobilized FN fragment, day 14
Protocol: Apheresis was performed, or 50 mL blood was collected from human healthy donor obtained with informed consent. The collected blood was then diluted 2-folds with phosphate buffered saline (manufactured by NEXELL or SIGMA, hereinafter referred to as “PBS”), overlaid on Ficoll-paque (manufactured by GE Healthcare Bio-Science), and centrifuged at 600×g for 20 minutes. Peripheral blood mononuclear cells (hereinafter referred to as “PBMCs”) in an intermediate layer were collected with a pipette, and washed. The collected PBMCs were suspended in a storage solution composed of 90% (v/v) FBS (manufactured by MP Biomedicals, LLC)/10% (v/v) DMSO (manufactured by SIGMA), or a storage solution composed of equivolumes of CP-1 (manufactured by KYOKUTO PHARMACEUTICAL INDUSTRIAL CO., LTD.) containing 8% (w/v) human serum albumin (name of formulation: Buminate, manufactured by Baxter Limited, hereinafter referred as to “HSA”) and an RPMI 1640 medium (manufactured by SIGMA), and stored in liquid nitrogen. During expansion of γδ T cells, these stored PBMCs were rapidly melted in water bath at 37° C., and washed with RPMI 1640 medium containing 10 μg/mL DNase (manufactured by Calbiochem), 10% (v/v) human AB serum (manufactured by Cambrex), 2 mM L-glutamine (manufactured by Cambrex), and 100 μg/mL streptomycin sulfate (manufactured by MEIJI SEIKA KAISHA, LTD.) (hereinafter referred to as “10HRPMI+L-Gln”) or Iscove's Modified Dulbecco's Medium (IMDM) (manufactured by Invitrogen) containing 10 μg/mL DNase and 10% (v/v) human AB serum (hereinafter referred to as “10HIMDM”). Thereafter, the number of live cells was calculated by trypan blue staining method. The cells were subjected to each experiment.
A fibronectin fragment (hereinafter referred to as a “FN fragment”) (CH-296 and H296-H296) was immobilized on a culture equipment used in the following experiment. Concretely, a buffer having a pH of 5.0 composed of 2.20% (w/v) sodium citrate dihydrate, 0.80% (w/v) citric acid monohydrate and 2.20% (w/v) glucose (all manufactured by Nakalai Tesque Inc.) (hereinafter referred to as “ACD-A solution (pH 5.0)”), containing CH-296 (final concentration: 25 μg/mL) or H296-H296 (final concentration: 3 μg/mL), was added to a 24-well cell culture plate (manufactured by Becton Dickinson or Corning), in a volume of 240 μL each.
These culture equipments was incubated for 5 hours or more at room temperature. Immediately before use, the ACD-A solution (pH 5.0) containing CH-296 or H296-H296 was removed by aspiration from these culture equipments, and thereafter each well was washed with twice PBS, and then once with RPMI 1640 medium, and the culture equipments were subjected to each experiment. As a control, a plate to which nothing was immobilized was used.
PBMCs prepared in Example 1-(1) were suspended in 10HRPMI+L-Gln or 10HIMDM so as to have a concentration of 1×10^6 cells/mL, to prepare a cell suspension. Thereafter, the above-mentioned cell suspension was added to a plate to which nothing was immobilized or a plate immobilized with CH-296 or H296-H296, prepared in Example 1-(2), in a volume of 1 mL/well each. […]

[3] = system: γδ T cells; experiment: Expansion of γδ T cell population using pamidronate, CH-296 plate (Example 3); settings: human PBMCs; IMDM; pamidronate 5 μM; immobilized CH-296; day 14
Protocol: The expansion was carried out in the same manner as Example 2, except that a plate immobilized with CH-296 prepared in Example 1-(2) was used.
The ratio of the γδ T cells was analyzed according to flow cytometry for PBMCs prepared in Example 1-(1) and the cells on the fourteenth day from the initiation of culture prepared in Example 3-(1), in the same manner as in Example 1-(4). As a result, the ratio of γδ T cells was 8.9% for the PBMCs, and the ratio was from 96.0 to 96.9% for the cells on the fourteenth day from the initiation of culture.
as §1, with “3-(1).” for “4-(1).”

[4] = medium 10HRPMI + L-Gln, stimulant pamidronate 5 μM

Molecule	Expansion Fold of γδ T Cells (Folds) Fourteenth Day of Culture [1]	Expansion Fold of γδ T Cells (Folds) Fourteenth Day of Culture [2, 4]	expansion fold of γδ T cells compared to control group [3]	Expansion Fold of γδ T Cells (Folds) Fourteenth Day of Culture ([2]; medium 10HIMDM, stimulant IPP 5 μM)	Expansion Fold of γδ T Cells (Folds) Fourteenth Day of Culture ([2]; medium 10HIMDM, stimulant pamidronate 5 μM)	Expansion Fold of γδ T Cells (Folds) Fourteenth Day of Culture ([2]; medium 10HRPMI + L-Gln, stimulant IPP 5 μM)
CH-296: polypeptide comprising a cell binding domain, a heparin binding domain and a CS-1 domain of fibronectin (SEQ ID NO: 13)	×101.4 Folds	×3.85 Folds	high expansion fold of γδ T cells during the culture, as compared to that of the control group			
H296-H296: modified fibronectin fragment in which two H-296's are connected to each other (SEQ ID NO: 22) (protein, Fibronectin fragment named H296-H296) AIPAPTDLKFTQVTPTSLSAQWTPPNVQLTGYRVRVTPKEKTGPMKEINLAPDSSSVVVSGLMVATKYEVSVYALKDTLTSRPAQGVVTTLENVSPPRRARVTDATETTITISWRTKTETITGFQVDAVPANGQTPIQRTIKPDVRSYTITGLQPGTDYKIYLYTLNDNARSSPVVIDASTAIDAPSNLRFLATTPNSLLVSWQPPRARITGYIIKYEKPGSPPREVVPRPRPGVTEATITGLEPGTEYTIYVIALKNNQKSEPLIGRKKTDELPQLVTLPHPNLHGPEILDVPSTAMAIPAPTDLKFTQVTPTSLSAQWTPPNVQLTGYRVRVTPKEKTGPMKEINLAPDSSSVVVSGLMVATKYEVSVYALKDTLTSRPAQGVVTTLENVSPPRRARVTDATETTITISWRTKTETITGFQVDAVPANGQTPIQRTIKPDVRSYTITGLQPGTDYKIYLYTLNDNARSSPVVIDASTAIDAPSNLRFLATTPNSLLVSWQPPRARITGYIIKYEKPGSPPREVVPRPRPGVTEATITGLEPGTEYTIYVIALKNNQKSEPLIGRKKTDELPQLVTLPHPNLHGPEILDVPST		×5.76 Folds		×4.39 Folds	×3.18 Folds	×16.27 Folds
